The series can be described thus: self-splicing fitness, log relative to wild type (ln ratio); higher = more splicing; Tetrahymena group I intron in knt gene, E. coli kanamycin selection, DiMSum; sequences stand for … in CUCUCU…GGAGGGAAAAGUUAUCAGGCAUGCACCUGGUAGCUAGUCUUUAAACCAAUAGAUUGCAUCGGUUUAAAAGGCAAGACCGUCAAAUUGCGGGAAAGGGGUCAACAGCCGUUCAGUACCAAGUCUCAGGGGAAACUUUGAGAUGGCCUUGCAAAGGGUAUGGUAAUAAGCUGACGGACAUGGUCCUAACCACGCAGCCAAGUCCUAAGUCAACAGAUCUUCUGUUGAUAUGGAUGCAGUUCACAGACUAAAUGUCGGUCGGGGAAGAUGUAUUCUUCUCAUAAGAUAUAGUCGGACCUCUCCUUAAUGGGAGCUAGCGGAUGAAGUGAUGCAACACUGGAGCCGCUGGGAACUAAUUUGUAUGCGAAAGUAUAUUGAUUAGUUUUGGAGUACUCGUGGUCG
An outline of the steps:
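Six replicate transformations of E. coli BL21(DE3) with a pET-22b(+) library were grown overnight at 37°C or 30°C. The library randomised all eight P1ex-region intron nucleotides, the intron lying in the knt kanamycin-resistance gene, and plates were LB agar with or without 25 μg/mL kanamycin plus 100 μg/mL carbenicillin, 50 μM IPTG and 0.2% rhamnose. Pooled colonies were amplicon-sequenced on an Illumina HiSeq 2500, and fitness is the DiMSum error-weighted combination of wild-type-normalised replicate fold changes, kanamycin versus none.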

± gives the uncertainty stated by the source.

Take CCGUAGCAAUAUUACGCUGC: the “self-splicing fitness (ln)” value is -2.07 ± 0.47 (30 °C) and -1.49 ± 0.45 (37 °C). As for CCGUAGCAAUAUUACGCUUU, the “self-splicing fitness (ln)” value is, setting by setting: (30 °C) -3.52 ± 0.43; (37 °C) -2.23 ± 0.49. The like results for CCGUAGCAAUAUUACGGCGG were, in that order, -4.06 ± 0.3 and -2.97 ± 0.26.

In the case of CCGUAGCAAUAUUACGGGCC, the “self-splicing fitness (ln)” value runs as follows: (30 °C) -3.55 ± 0.25; (37 °C) -2.83 ± 0.32.

Turning to CCGUAGCAAUAUUACGGUCU, the “self-splicing fitness (ln)” value runs as follows: (30 °C) -3.01 ± 0.21; (37 °C) -2.2 ± 0.18. On the same counts, the results for CCGUAGCAAUAUUACGGUUC are -2.21 ± 0.2 and -2.04 ± 0.26. The like results for CCGUAGCAAUAUUACGGUUG were, in that order, -3.89 ± 0.24 and -1.73 ± 0.19. On the same counts, the results for CCGUAGCAAUAUUACGUAAC are -4.68 ± 0.46 and -0.709 ± 0.24. For CCGUAGCAAUAUUACGUACG, the “self-splicing fitness (ln)” value reads like this: (30 °C) -2.13 ± 0.18; (37 °C) -1.83 ± 0.21. The like results for CCGUAGCAAUAUUACGUAUA were, in that order, -2.74 ± 0.18 and -2.72 ± 0.27. The like results for CCGUAGCAAUAUUACGUCAG were, in that order, -1.26 ± 0.077 and -1.55 ± 0.089. On the same counts, the results for CCGUAGCAAUAUUACGUCUA are -2.84 ± 0.16 and -1.92 ± 0.18.

Regarding CCGUAGCAAUAUUACGUGAC, the “self-splicing fitness (ln)” value (30 °C) was -2.36 ± 0.15. For the sequence CCGUAGCAAUAUUACGUGGC, the “self-splicing fitness (ln)” value was -3.76 ± 0.26 (30 °C) and -2.73 ± 0.26 (37 °C). As for CCGUAGCAAUAUUACGUUGU, the “self-splicing fitness (ln)” value (30 °C) was -3.87 ± 0.16 and the “self-splicing fitness (ln)” value (37 °C) was -2.3 ± 0.18. Turning to CCUAAGCAAUAUUACGAACU, the “self-splicing fitness (ln)” value (30 °C) was -3.44 ± 0.48 and the “self-splicing fitness (ln)” value (37 °C) was -1.99 ± 0.22. As to CCUAAGCAAUAUUACGAAGA, the “self-splicing fitness (ln)” value is -1.82 ± 0.22 (30 °C) and -1.82 ± 0.22 (37 °C). On to CCUAAGCAAUAUUACGAUUC, for which the “self-splicing fitness (ln)” value by setting is: (30 °C) -3.13 ± 0.29; (37 °C) -2.6 ± 0.41. The like results for CCUAAGCAAUAUUACGCACA were, in that order, -4.21 ± 0.46 and -1.2 ± 0.35. On to CCUAAGCAAUAUUACGCAGA, for which the “self-splicing fitness (ln)” value (37 °C) was -2.34 ± 0.37. Consider CCUAAGCAAUAUUACGCCAA, for which the “self-splicing fitness (ln)” value is -2.22 ± 0.24 (30 °C) and -3.27 ± 0.46 (37 °C). The like results for CCUAAGCAAUAUUACGCCCA were, in that order, -3.67 ± 0.33 and -2.02 ± 0.33. With CCUAAGCAAUAUUACGCCUU, the “self-splicing fitness (ln)” value (30 °C) is -3.22 ± 0.21 and the “self-splicing fitness (ln)” value (37 °C) is -2.79 ± 0.26. Turning to CCUAAGCAAUAUUACGCGAG, the “self-splicing fitness (ln)” value reads like this: (30 °C) -4.48 ± 0.25; (37 °C) -3.56 ± 0.23. The like results for CCUAAGCAAUAUUACGCUUA were, in that order, -3.09 ± 0.18 and -1.97 ± 0.29. On the same counts, the results for CCUAAGCAAUAUUACGGAAU are -3.6 ± 0.25 and -2.48 ± 0.19. On to CCUAAGCAAUAUUACGGAGC, for which, for the setting “30 °C”, the “self-splicing fitness (ln)” value is -2.66 ± 0.35.

Take CCUAAGCAAUAUUACGGAUG: the “self-splicing fitness (ln)” value was -2.08 ± 0.082 (30 °C) and -1.16 ± 0.085 (37 °C). For the sequence CCUAAGCAAUAUUACGGCCG, the “self-splicing fitness (ln)” value runs as follows: (30 °C) -0.351 ± 0.18; (37 °C) -0.367 ± 0.22. As for CCUAAGCAAUAUUACGGCUG, the “self-splicing fitness (ln)” value runs as follows: (30 °C) -3.49 ± 0.21; (37 °C) -2.47 ± 0.3. On the same counts, the results for CCUAAGCAAUAUUACGGGUU are -3.52 ± 0.2 and -2.84 ± 0.2. In the case of CCUAAGCAAUAUUACGGUCC, the “self-splicing fitness (ln)” value (37 °C) was -2.28 ± 0.45. Take CCUAAGCAAUAUUACGUCCG: the “self-splicing fitness (ln)” value reads like this: (30 °C) -1.34 ± 0.11; (37 °C) -0.638 ± 0.11. In the case of CCUAAGCAAUAUUACGUUGU, the “self-splicing fitness (ln)” value (30 °C) was -3.37 ± 0.16 and the “self-splicing fitness (ln)” value (37 °C) is -2.15 ± 0.15. Regarding CCUCAGCAAUAUUACGACAA, the “self-splicing fitness (ln)” value (30 °C) was -1.92 ± 0.17 and the “self-splicing fitness (ln)” value (37 °C) was -2.31 ± 0.25. The like results for CCUCAGCAAUAUUACGAGCA were, in that order, -3.04 ± 0.26 and -2.87 ± 0.25. For CCUCAGCAAUAUUACGAUUC, the “self-splicing fitness (ln)” value reads like this: (30 °C) -3.88 ± 0.43; (37 °C) -2.44 ± 0.49. On the same counts, the results for CCUCAGCAAUAUUACGCACA are -3.09 ± 0.48 and -2.02 ± 0.26. On the same counts, the results for CCUCAGCAAUAUUACGCCAG are -3.22 ± 0.16 and -0.883 ± 0.13.
